We go through 76 variants from the RNAGym collection of RNA variant scans (doi:10.7554/elife.80360).

The labels stand for the following.
B1: Hairpin Ribozyme (parent)
chain: GUCCUCUUUCACGUGCGCGUGAAAGAGAGAAGUGAACCAGAGAAACACACGUUGUGGUAUAUUACCUGGUA

Variants of B1 are the subject of the series. Briefly: self-cleavage, relative activity (ratio to wild type); higher = more cleavage; co-transcriptional.
As for GUCCUCCUUCACGUGCGCGUGAAAGUGAGAAGUGAACCAGAGAAACACACGUUGUGGUAUAUUACCUGGUA, the self-cleavage stood at 0.176.

On to GUCCUCCUUCACGUGCGCGUGAAAGAGAGAAGUGAACCAGAGAAACACACGUUGUGGUAUAUUACCUGGUC, for which the self-cleavage turned out to be 1.35.

Regarding GUCCUCCUUCACGUGCGCGUGAAAGAGAGAAGUGAACCAGAGAAACACACGUUGUGGUAUAUUACCUGGUG, the self-cleavage is 1.13.

With GUCCUCCUUCACGUGCGCGUGAAAGAGAGAAGUGAACCAGAGAAACACACGAUGUGGUAUAUUACCUGGUA, the self-cleavage came out at 0.82.

On to GUCCUCCUUUACGUGCGCGUGAAAGAGAGAAGUGAACCAGAGAAACACACGUUGUGGUAUAUUACCUGGUA, for which the self-cleavage was found to be 0.9.

As to GUCCUCCUUAACGUGCGCGUGAAAGAGAGAAGUGAACCAGAGAAACACACGUUGUGGUAUAUUACCUGGUA, the self-cleavage came out at 0.815.

On to GUCCUCAUUCACGUGCGCGUGAAAGAGAGAAGUGAACCAGAGAAACACACGUUGUGGUAUAUUACCUGGAA, for which the self-cleavage is 0.766.

With GUCCUCAUUCACGUGCGCGUGAAAGAGAGAAGUGAACCAGAGAAACACACGUUGUGGUAUAUUACCUGGGA, the self-cleavage was 0.921.

In the case of GUCCUCCUUCACGUACGCGUGAAAGAGAGAAGUGAACCAGAGAAACACACGUUGUGGUAUAUUACCUGGUA, the self-cleavage was 0.753.

As for GUCCUCCUUCACGUGCGCGUAAAAGAGAGAAGUGAACCAGAGAAACACACGUUGUGGUAUAUUACCUGGUA, the self-cleavage was found to be 0.618.

Turning to GUCCUCCUUCACGUGAGCGUGAAAGAGAGAAGUGAACCAGAGAAACACACGUUGUGGUAUAUUACCUGGUA, the self-cleavage was 0.913.

With GUCCUCCUUCACGUGGGCGUGAAAGAGAGAAGUGAACCAGAGAAACACACGUUGUGGUAUAUUACCUGGUA, the self-cleavage came out at 0.456.

In the case of GUCCUCCUUCACGUGCGCGUGAAAGAGAGAAGUGAACCAGAGAAACACACGUUGUGGUAUAUUAGCUGGUA, the self-cleavage worked out at 0.357.

Take GUCCUCCUUCACGUGCGCGUGAAAGAGAGAAGAGAACCAGAGAAACACACGUUGUGGUAUAUUACCUGGUA: the self-cleavage was found to be 0.068.

With GUCCUCCUUCACGUGCGCGUGAAAGAGAGAAGUGAAGCAGAGAAACACACGUUGUGGUAUAUUACCUGGUA, the self-cleavage came out at 0.273.

Take GUCCUCCUUCACGUGCGCGUGAAAGAGAGAAGUGAAACAGAGAAACACACGUUGUGGUAUAUUACCUGGUA: the self-cleavage worked out at 0.37.

Consider GUCCUCAUUCACGUGCGCGUGAAAGAGAGAAGUGAACCAGAGAAACACACGUUGUGGAAUAUUACCUGGUA, for which the self-cleavage was 0.58.

In the case of GUCCUCAUUCACGUGCGCGUGAAAGAGAGAAGUGAACCAGAGAAACACACGUUGUGGUAUAAUACCUGGUA, the self-cleavage turned out to be 0.177.

For GUCCUCCUUCACGUGCGCGUGAAAGAGAGAAGUGAACCAGAGAAACACACGUUGUGGUAUAUUACCUGGUA, the self-cleavage stood at 0.894.

Regarding GUCCUCGUUCACGUGCGCGUGAAAGAGAGAAGUGAACCAGAGAAACACACGUUGUGGUAUAUUACCUGGUA, the self-cleavage was determined as 0.875.

For GUCCUCCUUCACGUGCGCGUGAAAGAGAGAAGUGAACCAGAGAAAGACACGUUGUGGUAUAUUACCUGGUA, the self-cleavage is 0.124.

GUCCUCCUUCACGUGCACGUGAAAGAGAGAAGUGAACCAGAGAAACACACGUUGUGGUAUAUUACCUGGUA: the self-cleavage worked out at 0.863.

On to GUCCUCAUUCACGGGCGCGUGAAAGAGAGAAGUGAACCAGAGAAACACACGUUGUGGUAUAUUACCUGGUA, for which the self-cleavage was determined as 0.881.

With GUCCUCAUUCACGAGCGCGUGAAAGAGAGAAGUGAACCAGAGAAACACACGUUGUGGUAUAUUACCUGGUA, the self-cleavage worked out at 1.03.

As for GUCCUCCUUCACGUGCGCGUGAAAGAGAGAAGUGAACCAGAGAAACACACAUUGUGGUAUAUUACCUGGUA, the self-cleavage worked out at 0.69.

As to GUCCUCCUUCACGUGCGCGUGAAAGAGAGAAGUGAACCAGAGAAACACACGUUGUGGGAUAUUACCUGGUA, the self-cleavage was 0.815.

Turning to GUCCUCCUCCACGUGCGCGUGAAAGAGAGAAGUGAACCAGAGAAACACACGUUGUGGUAUAUUACCUGGUA, the self-cleavage is 0.673.

GUCCUCCUGCACGUGCGCGUGAAAGAGAGAAGUGAACCAGAGAAACACACGUUGUGGUAUAUUACCUGGUA: the self-cleavage came out at 0.35.

Turning to GUCCUCCUUCACGUGCGCGUGAAAGAGAGAAGUGAACCAGAGAAACACACGUUGUGGUAAAUUACCUGGUA, the self-cleavage stood at 0.737.

Regarding GUCCUCCUUCACGUGCGCGUGAAAGAGAGAAGUGAACCAGAGAAACACACGUUGUGGUAGAUUACCUGGUA, the self-cleavage is 0.621.

On to GUCCUCCUUCACGUGCGCGUGAAAGAGAGAAGUGAACCAGAGAAACACACGUUGUGGUAUAUUCCCUGGUA, for which the self-cleavage turned out to be 0.26.

GUCCUCCUUCACGUGCGCGUGAAAGAGAGAAGUGAACCAGAGAAACACACGUUGUGGUAUAUUGCCUGGUA: the self-cleavage is 0.458.

Take GUCCUCCUUCACGUGCGCGUGAAAGACAGAAGUGAACCAGAGAAACACACGUUGUGGUAUAUUACCUGGUA: the self-cleavage was 0.172.

Consider GUCCUCCUUCACGUGCGCGUGAAAGAAAGAAGUGAACCAGAGAAACACACGUUGUGGUAUAUUACCUGGUA, for which the self-cleavage came to 0.386.

Turning to GUCCUCCUUCACGUGCGCGUGAAAGAGAGAAGUGAACCAGAGAAACACACGUUGUGGUCUAUUACCUGGUA, the self-cleavage was determined as 0.251.

With GUCCUCCUUCAUGUGCGCGUGAAAGAGAGAAGUGAACCAGAGAAACACACGUUGUGGUAUAUUACCUGGUA, the self-cleavage worked out at 0.89.

For GUCCUCAUUCACGUGCGCGUGAAAGAGAGAAGUGAACCAGAGAAACACACGCUGUGGUAUAUUACCUGGUA, the self-cleavage turned out to be 0.953.

Take GUCCUCCUUCACGUGCGCGUGAAAGAGAGAAGUGAACCAGAGAUACACACGUUGUGGUAUAUUACCUGGUA: the self-cleavage worked out at 0.106.

As to GUCCUCCUUCACGUGCGCGUGAAAGAGAGAAUUGAACCAGAGAAACACACGUUGUGGUAUAUUACCUGGUA, the self-cleavage was 0.261.

GUCCUCCUUCACGUGCGCGUGAAAGAGAGAAGUGAACCAGAGAAACACACGUUGUGGUAUCUUACCUGGUA: the self-cleavage was 0.11.

Take GUCCUCCUUCACGUGCGCGUGAAAGAGAGAAGUGAACCAGAGAAACACACGUUGUGGUAUAUGACCUGGUA: the self-cleavage amounted to 0.161.

As for GUCCUCCUUCACGUGCGCGUGAAAGAGAGAAGUGAACCAGAGAAACACACGUUGUGGUAUAUAACCUGGUA, the self-cleavage is 0.19.

In the case of GUCCUCAUUCACGUGCGCGUGAAAGAGAGAAGUGAACCAGAGAAACACACGUUGUGGUAUAUGACCUGGUA, the self-cleavage was determined as 0.199.

As to GUCCUCAUUCACGUGCGCGUGAAAGAGAGAAGUGAACCAGAGAAACACACGUUGUGGUAUAUCACCUGGUA, the self-cleavage was determined as 0.102.

As for GUCCUCAUUCACGUGCGCGUGAAAGAGAGAAGUGAACCAGAGAAACACACGUUGUGGUAUAUUACCUAGUA, the self-cleavage came to 0.28.

Consider GUCCUCAUUCACGUGCGCGUGAAAGAGAGAAGUGAACCAGAGAAACACACGUUGUGGUAUAUUACCUCGUA, for which the self-cleavage was 0.146.

Take GUCCUCACUCACGUGCGCGUGAAAGAGAGAAGUGAACCAGAGAAACACACGUUGUGGUAUAUUACCUGGUA: the self-cleavage is 0.559.

As to GUCCUCCGUCACGUGCGCGUGAAAGAGAGAAGUGAACCAGAGAAACACACGUUGUGGUAUAUUACCUGGUA, the self-cleavage was 0.484.

Regarding GUCCUCCUUCACGUGCGCGUGCAAGAGAGAAGUGAACCAGAGAAACACACGUUGUGGUAUAUUACCUGGUA, the self-cleavage was 0.178.

For GUCCUCCUUCACGUGCGCGUGGAAGAGAGAAGUGAACCAGAGAAACACACGUUGUGGUAUAUUACCUGGUA, the self-cleavage worked out at 0.565.

Turning to GUCCUCCUUCACGUGCGCGUGAAAGAGAGAAGUGAACCAGAGAAACACACGUUGUGGUAUAUUACCGGGUA, the self-cleavage was 0.171.

For GUCCUCCUUCGCGUGCGCGUGAAAGAGAGAAGUGAACCAGAGAAACACACGUUGUGGUAUAUUACCUGGUA, the self-cleavage was 0.684.

On to GUCCUCCUUCUCGUGCGCGUGAAAGAGAGAAGUGAACCAGAGAAACACACGUUGUGGUAUAUUACCUGGUA, for which the self-cleavage came out at 0.294.

Take GUCCUCCUUCACGUGCGCGUGAAAGAGGGAAGUGAACCAGAGAAACACACGUUGUGGUAUAUUACCUGGUA: the self-cleavage worked out at 1.02.

As to GUCCUCAUUCACGUGCGCGUGAAAGAGAGAAGUGAACCAGAGAAACACACGUUGUGGUAUAUUACCAGGUA, the self-cleavage is 0.223.

Take GUCCUCAUUCACGUGCGCGUGAAAGAGAGAAGUGAACCAGAGAAACACACGUUGUGGUAUAUUACCGGGUA: the self-cleavage came to 0.282.

On to GUCCUCCUUCACGUGCGCGUGAAAGAGAGAAGUGAACCAGUGAAACACACGUUGUGGUAUAUUACCUGGUA, for which the self-cleavage worked out at 0.98.

GUCCUCAUUCACGUGCGCGUGAAAGAGAGAAGGGAACCAGAGAAACACACGUUGUGGUAUAUUACCUGGUA: the self-cleavage was 0.0989.

GUCCUCCUUCACGCGCGCGUGAAAGAGAGAAGUGAACCAGAGAAACACACGUUGUGGUAUAUUACCUGGUA: the self-cleavage stood at 0.925.

GUCCUCCUUCACGGGCGCGUGAAAGAGAGAAGUGAACCAGAGAAACACACGUUGUGGUAUAUUACCUGGUA: the self-cleavage was found to be 0.723.

For GUCCUCAUUCACGUGCGCGGGAAAGAGAGAAGUGAACCAGAGAAACACACGUUGUGGUAUAUUACCUGGUA, the self-cleavage worked out at 0.705.

As to GUCCUCCUUCACGUGCGCGUGAAAGAGAGAAGUGAACCAGAGAAACACACGUUGUGGUAUAGUACCUGGUA, the self-cleavage was 0.179.

In the case of GUCCUCCUUCACGUGCGCGUGAAAGAGAGAAGUGAACCAGAGAAACACCCGUUGUGGUAUAUUACCUGGUA, the self-cleavage stood at 0.0316.

With GUCCUCCUUCACGUGCGCGUGAAAGAGAGAAGUGAACCAGAGAAACAUACGUUGUGGUAUAUUACCUGGUA, the self-cleavage was 0.279.

On to GUCCUCCUUCACGUGCGCGUGAAAGAGAGAAGUGAACCAAAGAAACACACGUUGUGGUAUAUUACCUGGUA, for which the self-cleavage is 0.334.

For the variant GUCCUCCUUCACGUGCGCGUGAAAGAGAGAAGUGAACCAGAGAAGCACACGUUGUGGUAUAUUACCUGGUA, the self-cleavage worked out at 0.104.

Take GUCCUCCUUCACGUGCGCGUGAAAGAGAGAAGUGAACCAGAGAACCACACGUUGUGGUAUAUUACCUGGUA: the self-cleavage was found to be 0.136.

Consider GUCCUCCUUCACGUGCGCGUGAAACAGAGAAGUGAACCAGAGAAACACACGUUGUGGUAUAUUACCUGGUA, for which the self-cleavage turned out to be 0.251.

For GUCCUCCUUCACGUGCGCGUGAAAGAGAGAAGUGAACCAGAAAAACACACGUUGUGGUAUAUUACCUGGUA, the self-cleavage turned out to be 0.287.

Regarding GUCCUCCUUCACGUGCGCGUGAAAGAGAGAAGUGAACCAGAUAAACACACGUUGUGGUAUAUUACCUGGUA, the self-cleavage was determined as 0.205.

As for GUCCUCCUUCACGUGCGCGUGAAAGAGAGAAGUGAACCAGACAAACACACGUUGUGGUAUAUUACCUGGUA, the self-cleavage came out at 0.245.

As for GUCCUCCUUCACGUGCGCGUGAAAGAGAGAAGUGAACCAGAGCAACACACGUUGUGGUAUAUUACCUGGUA, the self-cleavage came to 0.0702.

For GUCCUCCUUCACGUGCGCGUGAAAGAGAGAAGUGAACCAGAGAAACACACGUUGUGGUAUAUUACCUGAUA, the self-cleavage was found to be 0.289.

As to GUCCUCCUUCACGUGCGCGUGAAAGAGAGAAGUGAACCAGAGAAACACACGUUGUGGUAUAUUACCUCGUA, the self-cleavage turned out to be 0.302.

For GUCCUCCUUCACGUGCGCGUGAAAGAGAGAAGUGAACCAGAGAAACACACGUUGUGGUAUAUUACCUGGCA, the self-cleavage came to 1.04.

As for GUCCUCCUUCACGUGCGCGUGAAAGAGAGAAGUGAACCAGAGAAACACACGUUGUGGUAUAUUACCUGGAA, the self-cleavage was 1.02.
